According to US20110064819A1, “ENCAPSULATION OF BIOLOGICALLY ACTIVE AGENTS” (priority 2008, published 2011):

Assay: HIP extraction of dalargin into the organic phase (LC-MS and Edman sequencing)
Type: physicochemical
Details: docusate sodium in dichloromethane, peptide solution pH 3.05
Protocol: A solution of the hexapeptide dalargin was prepared by dissolving 30-60 mg of the peptide into 3 ml of CaCl2 (18.3 mM) and lowering the pH to 3.05 by addition of concentrated HCl (2M). The resulting solution (500 μl, 10-20 mg/ml, and total amount of peptide 5-10 mg) was added to a solution of the HIP agent docusate sodium in dichloromethane (1 ml, 3.058-6.116% w/v) in a 2 ml eppendorf tube. The volume of HIP solution used was twice that of the peptide solution (1 ml HIP solution for 500 μl peptide solution). The molar ratio of HIP:peptide was 10:1 with 5 mg peptide and 5:1 with 10 mg peptide. The organic and aqueous phases were mixed by vortexing at maximum speed for 1 minute. The resulting suspension was then centrifuged to separate the two phases at 20,817 rcf for 50 minutes. The organic layer (containing solubilised peptide) was collected and used to prepare nanoparticles. In order to confirm that the process had been successful at solubilising the peptide into the organic phase, the amount of peptide remaining in the aqueous phase was determined.

## dalargin (YAGFLR; Humanised sequence of mus musculus and homo sapiens) [hexapeptide YAGFLR]
  Peptide extracted into the organic phase: at least 99%
